This note sets out measurements from paper PMC5606208 (Nature, 2017).

The data set “SEC-MALS” concerns the molecule itself. Nature of the data set: SEC-MALS. In general terms: In gel filtration, larger molecules generally elute earlier.
The data set “AUC” deals with the molecule itself. Nature of the data set: AUC.

B1: nPhos-HP1α (HP1α S92A, S95A, S97A co-expressed with CKII, phosphorylated only in the N-terminal extension) (natural protein, human, UniProt P45973 1-191, looked up)
chain: MGKKTKRTADSSSSEDEEEYVVEKVLDRRVVKGQVEYLLKWKGFSEEHNTWEPEKNLDCPELISEFMKKYKKMKEGENNKPREKSESNKRKANFANAADDIKSKKKREQSNDIARGFERGLEPEKIIGATDSCGDLMFLMKWKDTDEADLVLAKEANVKCPQIVIAFYEERLTWHAYPEDAENKEKETAKS
modifications: phosphorylated at Ser11, Ser12, Ser13, Ser14 (NTE); 8 phosphates per dimer by native MS
As for B1, in “SEC-MALS”, the “stoichiometry N” value was determined as 2.

B2: PhosNH-α/βchimera (N-terminus and Hinge from HP1α with the Chromodomain, Chromoshadow domain and CTE from HP1β, phosphorylated) (other, human)
chain: GKKTKRTADSSSSEDEEEYVVEKVLDRRVVKGKVEYLLKWKGFSDEDNTWEPEENLDCPDLISEFMKKYKKMKEGENNKPREKSESNKRKSNFSNSADDIKSKKKREQSNDIARGFARGLEPERIIGATDSSGELMFLMKWKNSDEADLVPAKEANVKCPQVVISFYEERLTWHSYPSEDDDKKDDKN
modifications: phosphorylated NTE (fully phosphorylated, sites not given)
As for B2, the binding result in the data set “AUC” is on record as “binds”.

Broadly, the stoichiometry N is the number of molecules, sites or subunits per partner or assembly.
